# Source: patent US20240417754
# Tested on: T1, Pf80 large serine recombinase
# T1 sequence: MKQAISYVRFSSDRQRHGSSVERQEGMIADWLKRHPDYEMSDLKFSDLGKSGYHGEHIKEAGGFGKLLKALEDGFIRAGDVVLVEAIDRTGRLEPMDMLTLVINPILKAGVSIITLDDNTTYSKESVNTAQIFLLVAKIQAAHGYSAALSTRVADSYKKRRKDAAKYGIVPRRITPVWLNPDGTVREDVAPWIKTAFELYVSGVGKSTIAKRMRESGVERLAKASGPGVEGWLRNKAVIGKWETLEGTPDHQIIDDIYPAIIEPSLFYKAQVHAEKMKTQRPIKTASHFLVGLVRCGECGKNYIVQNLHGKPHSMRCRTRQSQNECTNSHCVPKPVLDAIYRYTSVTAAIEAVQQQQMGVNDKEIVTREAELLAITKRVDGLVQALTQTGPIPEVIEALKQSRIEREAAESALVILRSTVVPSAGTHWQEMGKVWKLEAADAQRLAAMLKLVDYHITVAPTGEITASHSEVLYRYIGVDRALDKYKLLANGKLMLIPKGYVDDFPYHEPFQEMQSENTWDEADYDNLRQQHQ
# Assay: cell_activity
# Settings: share of unique integration reads at predicted site
substance,measurement,value
Pf80 attH (FKBP2 exon),on-target integration read share,34.3%
